The target of assay [1] is T1, human CD47 polypeptide (Met1-Pro139 of human CD47 fused with a Fc region) (human, UniProt Q08722 19-139).
T1 construct: range 1-139; Made in HEK293 cells and purified from the supernatant; also called CD47 protein; not shown: Fc region
Put plainly: ELISA on coated CD47 polypeptide (FIG. 1).

The target of assay [2] is T2, human CD47 expressed on CHO-CD47 cells (human, UniProt Q08722 19-323).
T2 construct: whole, on cells; also called cellular CD47; full-length CD47
Put plainly: flow cytometry on CHO-CD47 cells (MFI, FIG. 2). Here is the method:
The binding of the anti-CD47 scFvs to the surface of CHO-CD47 cells was determined by flow cytometry, and the data was expressed as mean fluorescence intensity (MFI).

Assay [3] has as its target T1, human CD47 polypeptide (Met1-Pro139 of …). Description: single colony ELISA, scFv supernatant on coated CD47 polypeptide. The protocol:
Phages were infected into E. coli host cells followed by plating the infected E. coli cells on agar plate. Each colony was picked up and cultured in 2×YT (yeast extract tryptone) medium containing 100 μg/ml ampicillin with vigorous shacking at 37° C. After OD₆₀₀ of the culture was greater than 1, isopropyl β-d-1-thiogalactopyranoside (IPTG) was added to each culture and the final concentration of IPTG was 1 mM. The cultures were incubated at 37° C. overnight, and then centrifuged 4,000×g for 10 minutes. The scFvs were secreted and collected from the supernatant. The collected scFvs were added onto a 96-well plate coated with CD47 polypeptide followed by the analysis of ELISA so as to determining the binding affinity of the selected scFvs and CD47 polypeptide.
(In general: An ELISA detects its analyte on a solid surface through an enzyme-linked reagent.)

Assay [4] addresses T2, human CD47 expressed on CHO-CD47 cells. Description: flow cytometry, IgG on CHO-CD47 cells. Here is the method:
The anti-CD47 scFvs were respectively expressed in their IgG formats in accordance with the procedure described in Materials and Methods. CHO cells expressing CD47 (CHO-CD47 cells) and wild-type CHO cells (CHO-WT cells) were respectively treated with anti-CD47 IgGs. After washing, the binding of the anti-CD47 IgGs was detected using a polyclonal APC-conjugated anti-human IgG antibody. Relative MFI was measured by flow cytometry. Antibody R23, a reference antibody constructed according to the sequences of ADI29341 disclosed in US20200181259A1, served as a positive control in this study.
On the technique in general: In flow cytometry, cells or beads pass a laser one at a time.

B1: scFv CD47-4 (scFv, V domains shown)
VL: DIQMTQSPSSLSASVGDRVTITCRASQSVDNGVAWYQQKPGKAPKLLIYSATRLYPGVLSRFSGSGSGTDFTLTISSLQPEDFATYYCQQSSTFPLTFGQGTKVEIKR
VH: EVQLVESGGGLVQPGGSLRLSCAASGFTINDYWIHWVRQAPGKGLEWVAHIWPTYGGTHYADSVKGRFTISADTSKNTAYLQMNSLRAEDAAVYYCARGGYSLDIWGQGTLVTVSS
notes: scFv
As to B1, the binding result in assay [1] and in assay [2] was “binds” each time.

B2: scFv CD47-22 (scFv, V domains shown)
VL: DIQMTQSPSSLSASVGDRVTITCRASQDVHSWVAWYQQKPGKAPKLLISRATWLASGVPSRFSGSGSGTDFTLTISSLQPEDFATYYCQQSSNFPLTFGQGTKVEIKR
VH: EVQLVESGGGLVQPGGSLRLSCAASGFTINDYGIHWVRQAPGKGLEWVAGIGPFWGSTFYADSVKGRFTISADTSKNTAYLQMNSLRAEDTAVYYCARWMWGRWSAMDYWGQGTLVTVSS
notes: scFv
For the molecule B2, the binding result in assay [2] and in assay [3] was “binds” each time.

B3: scFv CD47-3 (scFv, V domains shown)
VL: DIQMTQSPSSLSASVGDRVTITCRASQDVSNRVAWYQQKPGKAPKLLISRANGLASGVPSRFSGSGSGTDFTLTISSLQPEDFATYYCQQGSHFPITFGQGTKVEIKR
VH: EVQLVESGGGLVQPGGSLRLSCAASGFTISNWWIHWVRQAPGKGLEWVAHIGPTVGKTYYADSVKGRFTISADTSKNTAYLQMNSLRAEDTAVYYCARGGFAMDHWGQGTLVTVSS
notes: scFv
For B3, the binding result in assay [2] and in assay [3] was “binds” in each case.

B4: Antibody R23 (antibody, from another filing, V domains shown)
VH: QVQLQESGPGLVKPSETLSLTCTVSGGSIEHYYWSWIRQPPGKGLEWIGYIYYSGSTNYNPSLKSRVTISVDTSKNQFSLKLSSVTAADTAVYYCARGKTGSAAWGQGTLVTVSS
VL: DIQMTQSPSSVSASVGDRVTITCRASQGISRWLAWYQQKPGKAPKLLIYAASSLQSGVPSRFSGSGSGTDFTLTISSLQPEDFATYYCQQTVSFPITFGGGTKVEIKR
For the molecule B4, in assay [4], the EC50 (commonly the concentration at which the effect is half-maximal) came out at 4.18 mg/L.

B5: scFv CD47-20 (scFv, V domains shown)
VL: DIQMTQSPSSLSASVGDRVTITCRASQDVHNKVAWYQQKPGKAPKLLIYYTSNLYSGVPSRFSGSGSGTDFTLTISSLQPEDFATYYCQQHFTYPLTFGQGTKVEIKR
VH: EVQLVESGGGLVQPGGSLRLSCAASGFTISNYYIHWVRQAPGKGLEWVAGIWPSGGSTSYADSVKGRFTISADTSKNTAYLQMNSLRAEDTAVYYCTRGGYAMDYWGQGTLVTVSS
notes: scFv
For B5, the binding result in assay [2] and in assay [3] was “binds” in each case.

B6: scFv CD47-32 (scFv, V domains shown)
VL: DIQMTQSPSSLSASVGDRVTITCRASQDVHYTVAWYQQKPGKAPKLLIYGTNRLYTGVPSRFSGSGSGTDFTLTISSLQPEDFATYYCQQHFNFPITFGQGTKVEIKR
VH: EVQLVESGGGLVQPGGSLRLSCAASGFTINNFWIHWVRQAPGKGLEWVANISPFTGDTRYADSVKGRFTISADTSKNTAYLQMNSLRAEDTAVYYCARGGYAMDIWGQGTLVTVSS
notes: scFv
With B6, the binding result in assay [2] and in assay [3] was “binds” each time.

B7: scFv CD47-5 (scFv, V domains shown)
VL: DIQMTQSPSSLSASVGDRVTITCRASQDVHNKVAWYQQKPGKAPKLLIYSATRLYPGVPSRFSGSGSGTDFTLTISSLQPEDFATYYCQQHFNYPLTFGQGTKVEIKR
VH: EVQLVESGGGLVQPGGSLRLSCAASGFTITNYWIHWVRQAPGKGLEWVAHIWPGVGDTDYADSVKGRFTISADTSKNTAYLQMNSLRAEDTAVYYCARGGFAMDLWGQGTLVTVSS
notes: scFv
For the molecule B7, the binding result in assay [1] and in assay [2] was “binds” in each case.

B8: scFv CD47-6 (scFv, V domains shown)
VL: DIQMTQSPSSLSASVGDRVTITCRASQDVSSRVAWYQQKPGKAPKLLIYYTSNLYSGVPSRFSGSGSGTDFTLTISSLQPEDFATYYCQQHFNYPLTFGQGTKVEIKR
VH: EVQLVESGGGLVQPGGSLRLSCAASGFTITNWWIHWVRQAPGKGLEWVATISPYSGDTHYADSVKGRFTISADTSKNTAYLQMNSLRAEDTAVYYCARGGYAMDHWGQGTLVTVSS
notes: scFv
As to B8, the binding result in assay [1] and in assay [2] was “binds” each time.

B9: scFv CD47-8 (scFv, V domains shown)
VL: DIQMTQSPSSLSASVGDRVTITCRASQDVHYAVAWYQQKPGKAPKLLIYGTNRLYPGVPSRFSGSGSGTDFTLTISSLQPEDFATYYCQQHSNFPLTFGQGTKVEIKR
VH: EVQLVESGGGLVQPGGSLRLSCAASGFTINNFYIHWVRQAPGKGLEWVASIWPWSGETGYADSVKGRFTIGADTSKNTAYLQMNSLRAEDTAVYYCARGGFAMDFWGQGTLVTVSS
notes: scFv
Turning to B9, the binding result in assay [1] and in assay [2] was “binds” each time.

B10: CD47-2 IgG (antibody, V domains shown)
VH: EVQLVESGGGLVQPGGSLRLSCAASGFTISNSFIHWVRQAPGKGLEWVAYIWPWSGSTGYADSVKGRFTISADTSKNTAYLQMNSLRAEDTAVYYCARGGFSMDHWGQGTLVTVSS
VL: DIQMTQSPSSLSASVGDRVTITCRASQDVSSKVAWYQQKPGKAPKLLIYGTNRLYPGVPSRFSGSGSGTDFTLTISSLQPEDFATYYCQQSSNYPLTFGQGTKVEIKR
notes: IgG made in CHO cells from the scFv; The VL-CL junction was not checked (VL ends in ...EIKR); also called antibody CD47-2
Take B10: a half-maximal response in assay [4] (EC50) required 2.34 mg/L.

B11: scFv CD47-28 (scFv, V domains shown)
VL: DIQMTQSPSSLSASVGDRVTITCRASQDVHGKVAWYQQKPGKAPKLLIYYARNLYSGVPSRFSGSGSGTDFTLTISSLQPEDFASYYCQQYFNFPLTFGQGTKVEIKR
VH: EVQLVESGGGLVQPGGSLRLSCAASGFTITNWWIHWVRQAPGKGLEWVAEINPFGGNTYYADSVKGRFTISADTSKNTAYLQMNSLRAEDTAVYYCTRGGYAMDYWGQGTLVTVSS
notes: scFv
B11: the binding result in assay [2] and in assay [3] was “binds” each time.

B12: scFv CD47-27 (scFv, V domains shown)
VL: DIQMTQSPSSLSASVGDRVTITCRASQDVHNGVAWYQQKPGKAPKLLIFRTSWLLSGVPSRFSGSGSGTDFTLTISSLQPEDFATYYCQQGSSFPFTFGQGTKVEIKR
VH: EVQLVESGGGLVQPGGSLRLSCAASGFTINNYWIHWVRQAPGKGLEWVARISPFDGGTYYADSVKGRFTISADTSKNTAYLQMNSLRAEDTAVYYCARGGYAMDLWGQGTLVTVSS
notes: scFv
With B12, the binding result in assay [2] and in assay [3] was “binds” throughout.

B13: scFv CD47-31 (scFv, V domains shown)
VL: DIQMTQSPSSLSASVGDRVTITCRASQDVHSKVAWYQQKPGKAPKLLIYSTNRLYSGVPSRFSGSGSGTDFTLTISSLQPEDFATYYCQQHSNYPVTFGQGTKVEIKR
VH: EVQLVESGGGLVQPGGSLRLSCAASGFTISNWWIHWVRQAPGKGLEWVAAINPFNGRTDYADSVKGRFTISADTSKNTAYLQMNSLRAEDTAVYYCTRGGYAMDYWGQGTLVTVSS
notes: scFv
Turning to B13, the binding result in assay [2] and in assay [3] was “binds” in each case.

B14: CD47-7 IgG (antibody, V domains shown)
VH: EVQLVESGGGLVQPGGSLRLSCAASGFTITNYYIHWVRQAPGKGLEWVASIWPGYGNTGYADSVKGRFTISADTSKNTAYLQMNSLRAEDTAVYYCARGGYSMDFWGQGTLVTVSS
VL: DIQMTQSPSSLSASVGDRVTITCRASQDVYTRVAWYQQKPGKAPKLLIYYTRNLYSGVPSRFSGSGSGTDFTLTISSLQPEDFATYYCQQAANYPLTFGQGTKVEIKR
notes: IgG made in CHO cells; constant domains as for m19; also called antibody CD47-7
Molecule B14 came in with an EC50 in assay [4] of 2.44 mg/L.

B15: scFv CD47-14 (scFv, V domains shown)
VL: DIQMTQSPSSLSASVGDRVTITCRASQDVSTKVAWYQQKPGKAPKLLIYFTRNLYSGVPSRFSGSGSGTDFTLTISSLQPEDFATYYCQQHSNYPVTFGQGTKVEIKR
VH: EVQLVESGGGLVQPGGSLRLSCAASGFTISNWWIHWVRQAPGKGLEWVAGISPYSGKTDYADSVKGRFTISADTSKNTAYLQMNSLRAEDTAVYYCARGGYAMDLWGQGTLVTVSS
notes: scFv
With B15, the binding result in assay [1] and in assay [2] was “binds” throughout.

B16: scFv CD47-29 (scFv, V domains shown)
VL: DIQMTQSPSSLSASVGDRVTITCRASQDVHSKVAWYQQKPGKAPKLLIYSTNRLYPGVPSRFSGSGSGTDFTLTISSLQPEDFATYYCQQHFTYPLTFGQGTKVEIKR
VH: EVQLVESGGGLVQPGGSLRLSCAASGFTITNWWIHWVRQAPGKGLEWVAGITPYSGDTYYADSVKGRFTISADTSKNTAYLQMNSLRAEDTAVYYCARGGYAIDNWGQGTLVTVSS
notes: scFv
As for B16, the binding result in assay [2] and in assay [3] was “binds” throughout.

B17: scFv CD47-9 (scFv, V domains shown)
VL: DIQMTQSPSSLSASVGDRVTITCRASQDVSNRVAWYQQKPGKAPKLLIYGTNRLYTGVPSRFSGSGSGTDFTLTISSLQPEDFATYYCQQHFNYPITFGQGTKVEIKR
VH: EVQLVESGGGLVQPGGSLRLSCAASGFTINSWWIHWVRQAPGKGLEWVAKISPFNGDTHYADSVKGRFTISADTSKNTAYLQMNSLRAEDTAVYYCARGGYAMDIWGQGTLVTVSS
notes: scFv
Regarding B17, the binding result in assay [1] and in assay [2] was “binds” throughout.

Source of the values: US20220348652A1 (ANTAIMMU BIOMED, published 2022).
